First the molecules themselves.
B1: golden hamster ACE2 ectodomain fused with mFc (Fc fusion)
chain: QSIIEEQAKTFLDKFNQEAEDLSYQSALASWNYNTNITEENAQKMNEAAAKWSAFYEEQSKLAKNYSLQEVQNLTIKRQLQALQQSGSSALSADKNKQLNTILNTMSTIYSTGKVCNPKNPQECLLLEPGLDDIMATSTDYNERLWAWEGWRAEVGKQLRPLYEEYVVLKNEMARANNYEDYGDYWRGDYEAEGADGYNYNGNQLIEDVERTFKEIKPLYEQLHAYVRTKLMNTYPSYISPTGCLPAHLLGDMWGRFWTNLYPLTVPFGQKPNIDVTDAMVNQGWNAERIFKEAEKFFVSVGLPYMTQGFWENSMLTDPGDDRKVVCHPTAWDLGKGDFRIKMCTKVTMDNFLTAHHEMGHIQYDMAYATQPFLLRNGANEGFHEAVGEIMSLSAATPEHLKSIGLLPSDFQEDNETEINFLLKQALTIVGTLPFTYMLEKWRWMVFKGDIPKEQWMEKWWEMKREIVGVVEPLPHDETYCDPAALFHVSNDYSFIRYYTRTIYQFQFQEALCQAAKHDGPLHKCDISNSTEAGQKLLNMLRLGKSEPWTLALENVVGARNMDVRPLLNYFEPLSVWLKEQNKNSFVGWNTDWSPYADQSIKVRISLKSALGENAYEWDDNEMYLFRASVAYAMRVYFAKNKTQTVPFGVEDIRVSDLKPRVSFNFFVTSPQNVSDIIPRNEVEEAVRLSRGRINDVFGLDDNSLEFLGINPTLSPPYQPPVT
B2: wild Bactrian camel ACE2 ectodomain fused with mFc (Fc fusion)
chain: QSTTEELAKTFLEEFNHEAEDLSYQSSLASWNYNTNITDENVQKMNDARAKWSTFYEEKSKTAKTYPLEEIQNVTLKRQLQALQQSGASALSADKSKRLTTVLSTMSTIYSSGEVCDPNNPQECLVLEPGLDDIMENSKDYNQRLWAWEGWRAEVGKQLRPLYEEYVVLKNEMARANNYEDYGDYWRGDYEVMWAGDYDYSRDQLMGDVEHTFAEIKPLYEHLHAYVRAKLMDVYPSHISPTGCLPAHLLGDMWGRFWTNLYSLTVPFGQKPNIDVTEAMENQSWDAKRIFKEAEKFFVSIGLPNMTQGFWDNSMLTEPGDGRKVVCHPTAWDLGKGDFRIKMCTKVTMDDFLTAHHEMGHIQYDMAYAIQPFLLRNGANEGFHEAVGEIMSLSAATPHYLKALGLLPADFYEDSETEINFLLKQALTIVGTLPFTYMLEKWRWMVFKGEIPKEQWMQKWWEMKREIVGVVEPLPHDETYCDPACLFHVAEDYSFIRYYTRTIYQFQFHEALCQIAKHEGPLYKCDISNSTEAGQKLLQMLSLGKSEPWTLALEGLVGVKTMDVKPLLNYFEPLLTWLKDQNRNSFVGWSTDWTPYTDQSIKVRISLKSALGDKAYEWNDNEMYLFQSSLAYAMRKYFLKVQNQTILFGVEDVWVSDLKPRISFSFFVTSPKNVSDIIPRTEVEEAIRMSRSRINDAFRLDDNSLEFLGIQPTLGPPYEPP
B3: sheep ACE2 ectodomain fused with mFc (Fc fusion)
chain: QSTTEGQAKTFLEKFNHEAEDLSYQSSLASWNYNTNITDENVQKMNEARAKWSAFYEEQSRMARTYSLEEIQNLTLKRQLKALQHSGTSVLSAEKSKRLNTILNKMSTIYSTGKVLDPNTQECLALEPGLDDIMENSRDYNRRLWAWEGWRAEVGKQLRPLYEEYVVLENEMARANNYEDYGDYWRGDYEVTGAGDYDYSRDQLMKDVERTFEEIKPLYEQLHAYVRAKLMDTYPSYISPTGCLPAHLLGDMWGRFWTNLYSLTVPFEHKPSIDVTEKMKNQSWDAERIFKEAEKFFVSIGLPYMTQGFWDNSMLTEPGDGRKVVCHPTAWDLGKGDFRIKMCTKVTMDDFLTAHHEMGHIQYDMAYATQPYLLRNGANEGFHEAVGEIMSLSAATPHYLKALGLLAPDFYEDNETEINFLLKQALTIVGTLPFTYMLEKWRWMVFKGEIPKQQWMEKWWEMKREIVGVVEPLPHDETYCDPACLFHVAEDYSFIRYYTRTIYQFQFHEALCKTAKHEGALFKCDISNSTEAGQRLLQMLRLGKSEPWTLALENIVGIKTMDVKPLLNYFEPLFTWLKEQNRNSFVGWSTEWTPYSDQSIKVRISLKSALGENAYEWNDNEMYLFRSSVAYAMRKYFLKERNETIPFGEENVWVSDKKPRISFKFFVTSPNNVSDIIPRTEVENAIRLCRDRINDAFQLDDNSLEFLGIQPTLRPPYEPP

This experiment deals with SARS-CoV-2 PT-RBD (SARS-CoV-2 prototype, UniProt P0DTC2). In words: SPR. Background: SPR reads the build-up and loss of mass on a sensor chip optically.
What is called Kd is the equilibrium constant for the complex coming apart. Higher therefore signals a looser complex. For the molecule B1, the Kd came to 71.8 nM.

In turn, B2 had a Kd of 993 nM.

Regarding B3, the affinity, expressed as Kd, was 171 nM.

For the origin of these results see article PMC12363175 (2025).
